Experimental data as given in the supplement of paper PMC7877785.
± gives the uncertainty stated by the source.

Assay: self-splicing fitness, log relative to wild type (ln ratio); higher = more splicing; Tetrahymena group I intron in knt gene, E. coli kanamycin selection, DiMSum; sequences stand for … in CUCUCU…GGAGGGAAAAGUUAUCAGGCAUGCACCUGGUAGCUAGUCUUUAAACCAAUAGAUUGCAUCGGUUUAAAAGGCAAGACCGUCAAAUUGCGGGAAAGGGGUCAACAGCCGUUCAGUACCAAGUCUCAGGGGAAACUUUGAGAUGGCCUUGCAAAGGGUAUGGUAAUAAGCUGACGGACAUGGUCCUAACCACGCAGCCAAGUCCUAAGUCAACAGAUCUUCUGUUGAUAUGGAUGCAGUUCACAGACUAAAUGUCGGUCGGGGAAGAUGUAUUCUUCUCAUAAGAUAUAGUCGGACCUCUCCUUAAUGGGAGCUAGCGGAUGAAGUGAUGCAACACUGGAGCCGCUGGGAACUAAUUUGUAUGCGAAAGUAUAUUGAUUAGUUUUGGAGUACUCGUGGUCG
Summary of the method: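 The eight P1ex-region nucleotides of an intron in the knt kanamycin-resistance gene on pET-22b(+) were all randomised and the library put into E. coli BL21(DE3). Six replicate transformations were grown overnight at 37°C or 30°C on LB agar with or without 25 μg/mL kanamycin, together with 100 μg/mL carbenicillin, 50 μM IPTG and 0.2% rhamnose. Colonies were pooled and amplicon-sequenced on an Illumina HiSeq 2500. Fitness from DiMSum is the error-weighted combination of wild-type-normalised replicate fold changes, kanamycin over none.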

Row | Sequence | self-splicing fitness (ln) (30 °C) | self-splicing fitness (ln) (37 °C)
1 | AGCCAGCAAUAUUACGGAUU | -2.85 ± 0.1 | -0.534 ± 0.093
2 | CCUGAGCAAUAUUACGAGAA | -3.46 ± 0.4 | -1.79 ± 0.29
3 | CCAAAGCAAUAUUACGUCUA | -3.06 ± 0.23 | -2.06 ± 0.21
4 | CGCUAGCAAUAUUACGCAAA |  | -3.01 ± 0.47
5 | UUCUAGCAAUAUUACGCUCG | -2.13 ± 0.26 | -2.09 ± 0.49
6 | AUUUAGCAAUAUUACGCACU | 0.177 ± 0.13 | 0.474 ± 0.16
7 | GGCAAGCAAUAUUACGAUCC | -1.31 ± 0.22 | -0.615 ± 0.27
8 | AUGAAGCAAUAUUACGCUGA | -1.2 ± 0.13 | -1.24 ± 0.17
9 | CUAAAGCAAUAUUACGGCCU | -3.01 ± 0.15 | -2.5 ± 0.28
10 | AGCGAGCAAUAUUACGAUCG | -1.79 ± 0.25 | -1.63 ± 0.3
11 | GAGAAGCAAUAUUACGAGAC | -2.38 ± 0.3 | -2.64 ± 0.28
12 | AUCAAGCAAUAUUACGCCAU | -2.88 ± 0.19 | -1.44 ± 0.13
13 | UUAAAGCAAUAUUACGUGUC | -1.09 ± 0.14 | -1.42 ± 0.16
14 | CCAUAGCAAUAUUACGGCUA | -2.48 ± 0.25 | -1.89 ± 0.28
15 | AGUCAGCAAUAUUACGCCGG | -2.86 ± 0.48 | 
16 | UACCAGCAAUAUUACGACUU | -0.799 ± 0.046 | -0.301 ± 0.056
17 | GGGAAGCAAUAUUACGGUUU | -1.89 ± 0.099 | -1.07 ± 0.1
18 | UAUUAGCAAUAUUACGUUGC | -3.57 ± 0.31 | -2.59 ± 0.25
19 | CGCUAGCAAUAUUACGAGAC | -3.36 ± 0.12 | -2.45 ± 0.13
20 | UACGAGCAAUAUUACGGCGU | -2.83 ± 0.33 | -1.73 ± 0.29
21 | GCGUAGCAAUAUUACGGCCA |  | 0.769 ± 0.3
22 | GGGCAGCAAUAUUACGCUAA | -0.45 ± 0.087 | 0.361 ± 0.14
23 | CCUGAGCAAUAUUACGCGAU | -3.71 ± 0.18 | -2.25 ± 0.14
24 | GAAGAGCAAUAUUACGUUCA | -1.33 ± 0.13 | -0.0689 ± 0.13
25 | GCGUAGCAAUAUUACGUUCC |  | -2.36 ± 0.49

Row | Sequence | self-splicing fitness (ln) (30 °C) | self-splicing fitness (ln) (37 °C)
26 | ACGGAGCAAUAUUACGAUUU | -2.33 ± 0.12 | -1.65 ± 0.15
27 | GAAAAGCAAUAUUACGGCUG | -0.13 ± 0.091 | 0.108 ± 0.14
28 | GCUAAGCAAUAUUACGCUGA | -1.48 ± 0.18 | -1.02 ± 0.2
29 | GGCGAGCAAUAUUACGAUCG | -2.53 ± 0.21 | -0.978 ± 0.21
30 | AGUGAGCAAUAUUACGAUGC | -2.29 ± 0.28 | -3.16 ± 0.43
31 | CCCGAGCAAUAUUACGAAAU | -3.65 ± 0.33 | -0.929 ± 0.16
32 | AGGCAGCAAUAUUACGGAUA | -1.85 ± 0.22 | -2.11 ± 0.22
33 | GGAAAGCAAUAUUACGACUA | -0.62 ± 0.12 | -0.129 ± 0.12
34 | GUCUAGCAAUAUUACGUUGA | -1.64 ± 0.2 | -1.12 ± 0.23
35 | UGCAAGCAAUAUUACGCGGU | -3.01 ± 0.23 | -2.25 ± 0.21
36 | CGCGAGCAAUAUUACGCCUA |  | -2.42 ± 0.45
37 | UCUAAGCAAUAUUACGUGCC | -4.37 ± 0.39 | 
38 | CCAUAGCAAUAUUACGUGGU | -4 ± 0.23 | -1.73 ± 0.13
39 | ACAUAGCAAUAUUACGAAUG | -1.65 ± 0.1 | -1.22 ± 0.13
40 | CCUCAGCAAUAUUACGCUAA | -2.79 ± 0.14 | -3.05 ± 0.2
41 | UUGUAGCAAUAUUACGUUUG | -1.83 ± 0.15 | -1.87 ± 0.2
42 | GUUGAGCAAUAUUACGGUAA | -2.51 ± 0.27 | -2.49 ± 0.35
43 | CUCCAGCAAUAUUACGCGCC | -2.7 ± 0.29 | -2.05 ± 0.38
44 | UCGGAGCAAUAUUACGCUCU | -2.27 ± 0.36 | -1.68 ± 0.23
45 | CUUGAGCAAUAUUACGGGCG | -2.02 ± 0.13 | -1.51 ± 0.11
46 | UUACAGCAAUAUUACGAGGA | -2.24 ± 0.19 | -0.838 ± 0.15
47 | UUCCAGCAAUAUUACGGAUC | -3.83 ± 0.35 | -1.75 ± 0.16
48 | GCCAAGCAAUAUUACGCCGU | -2.07 ± 0.087 | -1.45 ± 0.12
49 | GUCUAGCAAUAUUACGGAAC | -1.15 ± 0.26 | 1.15 ± 0.16
50 | CGUGAGCAAUAUUACGUUUA | -3.08 ± 0.39 | 

Row | Sequence | self-splicing fitness (ln) (30 °C) | self-splicing fitness (ln) (37 °C)
51 | UGCCAGCAAUAUUACGGUUA | -0.355 ± 0.059 | 0.213 ± 0.066
52 | UAUCAGCAAUAUUACGCGGC | -2.77 ± 0.31 | -1.62 ± 0.24
53 | CGGGAGCAAUAUUACGACGC | -4.16 ± 0.46 | -3.31 ± 0.3
54 | ACCUAGCAAUAUUACGCAUA | -2 ± 0.2 | -1.85 ± 0.16
55 | ACUUAGCAAUAUUACGCUCA | -0.842 ± 0.13 | -0.196 ± 0.15
56 | CAACAGCAAUAUUACGACCG | 0.0339 ± 0.079 | -0.239 ± 0.081
57 | UAACAGCAAUAUUACGAAUU | -3.02 ± 0.13 | -1.86 ± 0.18
58 | GUCUAGCAAUAUUACGUCUC | 0.162 ± 0.096 | -0.048 ± 0.096
59 | AAAGAGCAAUAUUACGGUCU | -2.5 ± 0.13 | -1.76 ± 0.14
60 | CCGAAGCAAUAUUACGCUUU | -2.45 ± 0.15 | -3.33 ± 0.23
61 | UAUCAGCAAUAUUACGGAUC | -0.475 ± 0.11 | -0.265 ± 0.13
62 | UCCAAGCAAUAUUACGUCUG | -4 ± 0.23 | -3.01 ± 0.2
63 | GAAGAGCAAUAUUACGCGUG | -2.43 ± 0.078 | -1.32 ± 0.085
64 | AAUGAGCAAUAUUACGUUGG | -3.18 ± 0.23 | -3.55 ± 0.27
65 | AGGUAGCAAUAUUACGUGGU | -3.697 ± 0.024 | -2.33 ± 0.036
66 | GCGUAGCAAUAUUACGUCAU | -3.22 ± 0.26 | -2.25 ± 0.3
67 | CGGGAGCAAUAUUACGGCAA | -3.64 ± 0.43 | 
68 | CACCAGCAAUAUUACGAGCA | -3.54 ± 0.16 | -1.55 ± 0.13
69 | UAAUAGCAAUAUUACGGCCC | -2.07 ± 0.34 | -0.336 ± 0.46
70 | CGUGAGCAAUAUUACGGACU | -1.09 ± 0.14 | -0.345 ± 0.23
71 | UAGAAGCAAUAUUACGGUCC | -1.92 ± 0.22 | -1.57 ± 0.2
72 | GUCCAGCAAUAUUACGUAGU | -0.119 ± 0.062 | 0.398 ± 0.08
73 | AACAAGCAAUAUUACGACGU | 0.394 ± 0.063 | 0.441 ± 0.07
74 | GGACAGCAAUAUUACGAAAG | -3.73 ± 0.33 | -2.88 ± 0.43
75 | GUCGAGCAAUAUUACGCGAG | -0.678 ± 0.096 | -0.901 ± 0.12

Row | Sequence | self-splicing fitness (ln) (30 °C) | self-splicing fitness (ln) (37 °C)
76 | GUGGAGCAAUAUUACGUCUA | -3.74 ± 0.47 | 
77 | CGCAAGCAAUAUUACGAGCG | -3 ± 0.38 | -2.52 ± 0.44
78 | UCGAAGCAAUAUUACGGGCA | -0.603 ± 0.094 | -0.507 ± 0.1
79 | CUUCAGCAAUAUUACGUAUA | -3.15 ± 0.27 | -1.98 ± 0.2
80 | GAGGAGCAAUAUUACGUCUA | -2.04 ± 0.12 | -0.687 ± 0.15
81 | GCUCAGCAAUAUUACGAUUG | -2.83 ± 0.12 | -1.11 ± 0.12
82 | CAGCAGCAAUAUUACGGGGG | -1.63 ± 0.076 | -1.54 ± 0.11
83 | GUCUAGCAAUAUUACGCCAG | -2.46 ± 0.4 | 
84 | UUUUAGCAAUAUUACGGCGU | -1.89 ± 0.21 | -0.915 ± 0.45
85 | GGCCAGCAAUAUUACGCCGU | -2.39 ± 0.22 | -1.48 ± 0.19
86 | CUCUAGCAAUAUUACGCGAA | -2.68 ± 0.24 | -3.56 ± 0.28
87 | CAAUAGCAAUAUUACGGGAC | -2.83 ± 0.34 | -2.63 ± 0.27
88 | CCGCAGCAAUAUUACGAGGA | -3.51 ± 0.19 | -1.79 ± 0.13
89 | UUAAAGCAAUAUUACGAGCU | -0.888 ± 0.073 | -0.532 ± 0.1
90 | CUCGAGCAAUAUUACGAACU | -3.1 ± 0.26 | -2.8 ± 0.43
91 | CCUAAGCAAUAUUACGGACG | -1.15 ± 0.059 | -0.303 ± 0.08
92 | CGGUAGCAAUAUUACGCAGC | -2.14 ± 0.24 | -1.72 ± 0.31
93 | AACCAGCAAUAUUACGCUCG | -0.795 ± 0.075 | 0.274 ± 0.097
94 | GACCAGCAAUAUUACGGGCG | 0.17 ± 0.059 | 0.374 ± 0.078
95 | CUCCAGCAAUAUUACGUCGC | -4.34 ± 0.23 | -2.96 ± 0.23
96 | CUGUAGCAAUAUUACGUGCU | -2.94 ± 0.24 | -2.39 ± 0.33
97 | AUAAAGCAAUAUUACGGGGG | -2.77 ± 0.28 | -2.66 ± 0.28
98 | CUUGAGCAAUAUUACGCUGG | -3.81 ± 0.25 | -2.17 ± 0.17
